Results as given in patent US20190276542A1 (QILU PUGET SOUND BIOTHERAPEUTICS, published 2019).
Positions count from the first letter of the chain named. Where two headings read alike, the source gives them in different places.

Columns and labels:
[1] = target: T1, human CTLA4 expressed on Jurkat T cells (human, UniProt P16410 36-223); assay: cell-based or functional assay
[2] = target: T2, CTLA4-ECD_Fc, soluble hCTLA4 comprising the extracellular domain of hCTLA4 fused to an Fc fragment (human, UniProt P16410 36-161); assay: flow cytometry; inhibition of CTLA4-ECD_Fc binding to Raji cells (hB7-1/hB7-2)
T2 construct: extracellular domain; not shown: Fc fragment
Method: In a first assay, inhibition of hCTLA4 binding to hB7-1 and hB7-2 expressed on the surface of Raji cells was assessed. Raji cells, which are human cells, express high levels of hB7-1 and hB7-2. […] After 30 minutes, 1×10⁵ Raji cells were added to each well and incubated for another 30 minutes. […] IC₅₀'s were calculated using GraphPad Prism software (GraphPad, Inc., La Jolla, Calif., USA).

[3] = target: T1, human CTLA4 expressed on Jurkat T cells; assay: cell-based or functional assay; remark: listed apart in the source
[4] = target: T1, human CTLA4 expressed on Jurkat T cells; assay: flow cytometry on Jurkat T cells expressing hCTLA4
Excerpt: After washing, the surface-bound anti-hCTLA4 antibodies were detected with a polyclonal anti-hlgG (Fc-specific) antibody labeled with fluorescein isothiocyanate (FITC)(anti-hlgG-FITC). Binding of anti-hCTLA4 antibodies were detected by flow cytometric analysis. The results were reported a geometric mean fluorescence intensity (MFI) using FlowJo software (FLOWJO, L.L.C., Ashland, Oreg., USA).

[5] = target: T1, human CTLA4 expressed on Jurkat T cells; assay: cell-based or functional assay; remark: listed apart in the source

T1 sequence (P16410 36-223): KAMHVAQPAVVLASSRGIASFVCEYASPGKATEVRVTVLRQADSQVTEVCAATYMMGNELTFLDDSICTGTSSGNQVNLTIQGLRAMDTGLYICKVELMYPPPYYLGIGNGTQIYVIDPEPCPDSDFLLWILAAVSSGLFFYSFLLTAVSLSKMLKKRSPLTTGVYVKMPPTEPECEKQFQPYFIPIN
T2 sequence (P16410 36-161): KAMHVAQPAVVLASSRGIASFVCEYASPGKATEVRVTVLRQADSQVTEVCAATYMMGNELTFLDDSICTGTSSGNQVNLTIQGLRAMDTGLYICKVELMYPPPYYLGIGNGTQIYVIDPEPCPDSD

B1: anti-hCTLA4 antibody 10D4 (antibody, human IgG1, V domains shown)
VH: QVQLVESGGGVVEPGRSLRLSCTASGFTFSSYGMHWVRQAPGKGLEWVAVIWYHPSKKDYADSAKGRFTISRDNSKNTLYLQMNSLRAEDTAVYYCARAGLLGYFDYWGQGTLVTVSS
VL: EIVLTQSPGTLSLSPGERATLSCRASQSVTSYLAWYQQKPGQAPRPLIYGVSSRATGIPDRFSGSGSGTDFTLTISRLEPEDFAVYYCQQYGRYPFTFGPGTKVDIK
notes: unaltered form; also called Anti-CTLA4 10D4; anti-hCTLA4 #10D4
[1]
  IC50, luciferase reporter assay (Jurkat cells with CTLA4 plus Raji cells with hCD80 and hCD86): 2.12 nM
[2]
  IC50: 3.3 nM
[3]
  IC50, luciferase (RLU), CTLA4 Dual-Cell Reporter Assay (Jurkat cells with hCTLA4 plus Raji cells): 6.12 nM
[4]
  EC50: 0.085 nM

B2: altered anti-hCTLA4 11F4 (antibody, human IgG1, kappa, V domains shown)
VH: B1 VH with T23A, G44R, H54K, K57E, A99G, Q110D
VL: EIVLTQSPGTLSLSPGERATLSCRASQSINSYLAWYQQKPGQRPRPLIYGVSSRATGIPDRFSGSGSGTDFTLTISRLEPEDFAVYYCQQYGRYPFTFGDGTKVDIKR
[5]
  IC50, luciferase reporter assay (Jurkat cells with CTLA4 plus Raji cells with hCD80 and hCD86): 8.68 nM

B3: anti-hCTLA4 antibody 11F4 (antibody, human IgG1, V domains shown)
VH: B1 VH with T23A, H54K, K57E, A99G
VL: B1 VL with V29I, T30N
notes: unaltered form; also called Anti-CTLA4 11F4; anti-hCTLA4 #11F4
[2]
  IC50: 7.5 nM
[3]
  IC50, luciferase (RLU), CTLA4 Dual-Cell Reporter Assay (Jurkat cells with hCTLA4 plus Raji cells): 7.39 nM
[5]
  IC50, luciferase reporter assay (Jurkat cells with CTLA4 plus Raji cells with hCD80 and hCD86): 4.8 nM
[4]
  EC50: 0.158 nM
